Measurements from paper PMC8247761, “BZR1 Regulates Brassinosteroid-Mediated Activation of AMT1;2 in Rice”.

What was measured:
His:BZR1 [1] = target: T1, His:BZR1 (Oryza sativa (rice), UniProt Q7XI96 1-298); test: EMSA; stronger than probe A; EMSA: 1 ug His:BZR1, 40k cpm 32P-labeled probe; buffer, salt, pH and temperature not given (protocol of Je et al., 2010); conditions: protein: recombinant; tags: His (pET28a(+)); chain copies: 2; label: 32P; blunt
T1 sequence: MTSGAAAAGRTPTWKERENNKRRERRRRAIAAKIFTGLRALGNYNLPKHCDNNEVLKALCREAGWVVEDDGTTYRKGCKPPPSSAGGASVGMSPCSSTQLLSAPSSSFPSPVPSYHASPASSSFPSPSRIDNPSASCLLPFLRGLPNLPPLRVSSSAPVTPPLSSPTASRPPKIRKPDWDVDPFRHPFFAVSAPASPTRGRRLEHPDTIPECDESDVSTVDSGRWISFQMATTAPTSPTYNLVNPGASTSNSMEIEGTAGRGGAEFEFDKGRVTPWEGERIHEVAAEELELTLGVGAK

His:BZR1 [2] = target: T1, His:BZR1; test: EMSA; slightly weaker than probe B; EMSA: 1 ug His:BZR1, 40k cpm 32P-labeled probe; buffer, salt, pH and temperature not given (protocol of Je et al., 2010); conditions: protein: recombinant; tags: His (pET28a(+)); chain copies: 2; label: 32P; blunt

B1: probe B (BRRE B, AMT1;2 promoter P4) (dsDNA)
DNA 1: TGGTCGCATCGTCGTGCGTGAGCTGCCTATCG
DNA 2: CGATAGGCAGCTCACGCACGACGATGCGACCA
Question: Does B1 bind (His:BZR1 [1])?
Answer: binds

B2: probe A (BRRE A, AMT1;2 promoter P4) (dsDNA)
DNA 1: GTCTCACCGGGCTGCGTGCGTACGCCGATA
DNA 2: TATCGGCGTACGCACGCAGCCCGGTGAGAC
Question: Does B2 bind (His:BZR1 [2])?
Answer: binds
